# From patent publication US20230192860A1 (Bristol-Myers Squibb, published 2023)
# B1: P1-061029.IgG1.3 (antibody)
# heavy: EVQLVESGGGLVQPGKSLRLSCAASGFTLDDYAMHWVRQAPGKGLEWVSGINWNSANIGYADSVKGRFTISRDNAKNSLYLQMNSLRTEDTALYYCAKVPGYSGGWIDAFDVWGQGTMVTVSSASTKGPSVFPLAPSSKSTSGGTAALGCLVKDYFPEPVTVSWNSGALTSGVHTFPAVLQSSGLYSLSSVVTVPSSSLGTQTYICNVNHKPSNTKVDKRVEPKSCDKTHTCPPCPAPEAEGAPSVFLFPPKPKDTLMISRTPEVTCVVVDVSHEDPEVKFNWYVDGVEVHNAKTKPREEQYNSTYRVVSVLTVLHQDWLNGKEYKCKVSNKALPAPIEKTISKAKGQPREPQVYTLPPSREEMTKNQVSLTCLVKGFYPSDIAVEWESNGQPENNYKTTPPVLDSDGSFFLYSKLTVDKSRWQQGNVFSCSVMHEALHNHYTQKSLSLSPG
# light: not shown
# notes: IgG1.3; also called P1-061029 (parent); P1-061029-18
# Experiments:
# [1] = target: T1, monovalent hVISTA-ECD (amino acids 32-193 of SEQ ID NO: 1 with a 7xHis tail) (human, UniProt Q9H7M9 33-193); assay: SPR, pH 7.4 over pH 6.0
# T1 construct: analyte of the SPR assays; also called huVISTA-His; human VISTA-ECD
# Method: Further binding kinetic experiments were performed at various pHs on VISTA antibodies described herein by SPR as generally described in Example 9 above. Antibodies were normalized to 50 nM concentration in PBST pH 7.4 and captured on a Protein A CM5 chip (ID 4931) by injecting for 45 seconds at a 5 µL/min flow rate. An 8-point human VISTA titration ([…]) was prepared in PBST at pH 7.4, 6.9, 6.45, and 6.0. Titrations were injected over the captured antibodies for 180 seconds at 30 µL/min. Sensorgrams were fit to a 1:1 binding model in T200 evaluation software and the kinetic constants were reported.
# Each table reports the data at one of the four tested pHs (7.4, 6.9, 6.45, and 6.0, respectively). The 8-point hVISTA titration used in these assays was chosen to provide increased confidence in kinetic values reported at neutral pH conditions. A relatively stringent cutoff for non-binding was applied in this assay. Certain progeny of P1-061029 antibody (P1-068757, ‘759, ‘765, ‘771, and ‘775) show no binding to hVISTA at micromolar concentrations at pH 7.4, while ‘761 and ‘767 show no binding to hVISTA at 100 nM at pH 7.4 but do show binding to hVISTA at micromolar concentrations.
# [2] = target: T1, monovalent hVISTA-ECD (amino acids …); assay: SPR 37C, pH 7.4 over pH 6.0
# Method: Human VISTA binding kinetics of P1-061029 (“ ‘029”), P1-068761 (“ ‘761”) and P1-068767 (“ ‘767”) (as IgG1.3 antibodies) were measured at pH values between pH 7.4 and pH 6.0, i.e., at pH 6.9 and pH 6.45 using a Biacore® T100 instrument (GE Healthcare). […] Antibodies were diluted to 25 nM in PBST pH 7.4, and were captured across active biosensor flow cells at 5 ul/min for 45 seconds. A concentration series of 100 - 0.78 nM monovalent hVISTA-ECD (SEQ ID NO: 325) was prepared pH 7.4, 6.9, 6.45 and 6.0 running buffers, and was injected over the captured antibodies at 40 ul/min to measure association and dissociation. Two 15 second injections of 10 mM glycine pH 1.5 were used to regenerate the Protein A capture surface between assay cycles. Rate constants ka (kₒₙ) and kd (koff) were derived from reference flow cell and 0 nM blank-subtracted sensorgrams, and were fit to a 1:1 binding model in Biacore® T200 Evaluation Software v.2.0. The affinity constant, KD was calculated as the ratio of rate constants koff/kₒₙ for each VISTA antibody. Ratios of koff and KD at each pH relative to pH 6.0 were calculated to evaluate how the VISTA koff and KD change as the buffer pH shifts to physiological, and are shown in Table 7. […] As the buffer pH shifts from acidic to physiological, VISTA koff and KD both weaken for ‘761 and ‘767. […]
# [3] = target: T1, monovalent hVISTA-ECD (amino acids …); assay: SPR 37C, Ab on Protein A, hVISTA-ECD 50-0.2 nM, column headed pH 7 (running buffer pH 7.4 in the text)
# Method: (§1) Surface plasmon resonance (SPR) analysis was performed to measure the association rates (defined as ka or kₒₙ, 1/Ms units), dissociation rates (defined as kd or koff, s⁻¹ units) and affinity constants (defined as KD, M units) for VISTA Abs at acidic and physiological pHs using a Biacore® T200 instrument (GE Healthcare). […] Antibodies were diluted to 20 nM in PBST pH 7.4, and were captured across active biosensor flow cells at 5 ul/min for 50 seconds. A concentration series of 50 - 0.2 nM monovalent hVISTA-ECD (SEQ ID NO: 325) was prepared in pH 7.4 and 6.0 running buffers, and was injected over the captured antibodies at 40 ul/min to measure association and dissociation. Two 15 second injections of 10 mM glycine pH 1.5 were used to regenerate the Protein A capture surface between assay cycles. Rate constants kₐ (kₒₙ) and kd (kₒff) were derived from reference flow cell and 0 nM blank-subtracted sensorgrams, and were fit to a 1:1 binding model in Biacore® T200 Evaluation Software v.2.0.
# [4] = target: T1, monovalent hVISTA-ECD (amino acids …); assay: SPR 37C, Ab on Protein A, hVISTA-ECD 50-0.2 nM, pH 6.0
# Method: as §1
# T1 sequence (Q9H7M9 other isoform, or with tags, fused parts or gaps limits assumed): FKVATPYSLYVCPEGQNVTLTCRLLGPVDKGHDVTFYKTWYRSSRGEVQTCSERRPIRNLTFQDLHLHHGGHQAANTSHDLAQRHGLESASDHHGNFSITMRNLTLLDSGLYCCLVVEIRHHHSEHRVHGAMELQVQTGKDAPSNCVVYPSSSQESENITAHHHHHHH
binder,measurement,setting,value
B1,7.4 KD/ 6.0 KD,[1],4.5
same,7.4 kd/ 6.0 kd,[1],1.1
same,KD ratio to pH 6.0,[2],13.2
same,koff ratio to pH 6.0,[2],1.1
same,koff,[3],0.0091 s⁻¹
same,koff,[4],0.0048 s⁻¹
